{"source": "paper PMC9894594", "about": "“Progressive Acceleration of Insulin Exposure Over 7 Days of Infusion Set Wear” (Diabetes Technology & Therapeutics, 2023)", "key": {"[1]": {"assay": "Adverse events during the crossover clamp study", "format": "in vivo, human (participants with type 1 diabetes mellitus)", "conditions": "both IIS types", "source_text": "(§1) We performed a prospectively enrolled randomized sequence two-way crossover study of the investigational CBX (Capillary Biomedical, Inc., Irvine, CA) and a commercial angled Teflon (MiniMed™ Silhouette™; Medtronic Diabetes Care, Northridge, CA; indicated for 3-day use) IIS for two weeklong home use periods with four in-patient euglycemic clamp sessions during each of the 7-day periods. Between the two periods, there was a wash out of 14 days (Supplementary Fig. S1).\nWCG IRB approved the protocol and all associated documents used by participants before initiation of the study (Study No. 1283383) and during the study were registered in clinicaltrials.gov (NCT04398030). Participants aged 18–70 years, diagnosed with type 1 diabetes mellitus, and using rapid-acting insulin analog delivered through a Medtronic MiniMed insulin pump (model 530 or higher; Medtronic Diabetes Care) for at least 6 months were enrolled."}, "[2]": {"assay": "Insulin lispro pharmacokinetics after pump bolus during euglycemic clamp over 7 days of infusion set wear", "format": "in vivo, human (participants with type 1 diabetes mellitus)", "conditions": "for decline of median total insulin exposure (AUC0–300) from days 0 to 7: n.s.; for AUC0–300 (area under the insulin concentration curve, 0 to 300 min) / Cmax (maximum insulin concentration) / MRT (mean residence time) / t50% (early) (time to reach 50% of Cmax before peak) / t50% (late) (time to reach 50% of Cmax after peak) / tmax (time to maximum insulin concentration): 0.15 U/kg SC bolus by pump, plasma ELISA, median (25th–75th)", "source_text": "as §1\nEuglycemic clamp experiments were performed at AMCR Institute (in Escondido, CA.) on days 0, 3, 5, and 7 in each treatment period (eight clamps per participant). Participants were admitted to AMCR the evening before the clamp study and glucose was stabilized overnight with intravenous (IV) insulin or glucose as needed. Personal pumps were set to 0.1 U/h overnight and throughout the clamp experiment. Once glucose was stable (95 ± 15 mg/dL) in the morning, IV insulin was stopped 20 min before administering a bolus of 0.15 U/kg of insulin lispro (Eli Lilly, Indianapolis, IN) by pump. Glucose was clamped at 95 ± 15 mg/dL for 300 min or terminated early if runaway hyperglycemia occurred.\nPer participant and clamp, 30 plasma samples were collected in regular intervals and stored at −70°C. Samples were analyzed elsewhere (Northern Lights Mercodia Lispro ELISA, Mercodia AB, Uppsala, Sweden; lowest limit of quantification (LLOQ) = 1.0 mU/L, 94% accuracy[7]). Owing to the small sample size and the intrinsically greater variability in pharmacodynamic measures, the PK results are the only results detailed in this report.\nPK parameters (area under the insulin concentration curve [AUC] over the first 60 or 300 min, respectively; time to maximum insulin concentration [tmax]; maximum insulin concentration [Cmax]; time to half-maximum insulin concentration, early and late [t50%], and mean residence time [MRT]) were tested for treatment effects. […] Estimated means were then back transformed and the ratio between treatments/days (equality means a ratio of 1) tested for significance using mixed model for repeated measures (two-sided, α = 0.05). For simplicity reasons, all data are presented as median (25th–75th percentiles) or mean ± standard deviation."}, "[3]": {"conditions": "day 0 of IIS wear, CBX IIS, n = 6"}, "[4]": {"conditions": "day 0 of IIS wear, Control IIS, n = 6"}, "[5]": {"conditions": "day 3 of IIS wear, CBX IIS, n = 6"}, "[6]": {"conditions": "day 3 of IIS wear, Control IIS, n = 6"}, "[7]": {"conditions": "day 5 of IIS wear, CBX IIS, n = 6"}, "[8]": {"conditions": "day 5 of IIS wear, Control IIS, n = 6"}, "[9]": {"conditions": "day 7 of IIS wear, CBX IIS, n = 5"}, "[10]": {"conditions": "day 7 of IIS wear, Control IIS, n = 5"}}, "data": [{"substance": "insulin lispro", "values": [{"measurement": "severe or serious adverse events", "setting": "[1]", "result": "No severe or serious adverse events"}, {"measurement": "acceleration of median tmax by day 7 vs day 0", "setting": "[2]; CBX group", "result": 61, "unit": "%"}, {"measurement": "decrease of median MRT from day 0 to day 7", "setting": "[2]; CBX group", "result": 42, "unit": "%"}, {"measurement": "increase of median early exposure (AUC0–60) by day 7 vs day 0", "setting": "[2]; CBX group", "result": 59, "unit": "%"}, {"measurement": "decline of median total insulin exposure (AUC0–300) from days 0 to 7", "setting": "[2]; CBX group", "result": 22, "unit": "%"}, {"measurement": "acceleration of median tmax by day 7 vs day 0", "setting": "[2]; Control group", "result": 63, "unit": "%"}, {"measurement": "increase of median early exposure (AUC0–60) by day 7 vs day 0", "setting": "[2]; Control group", "result": 34, "unit": "%"}, {"measurement": "decline of median total insulin exposure (AUC0–300) from days 0 to 7", "setting": "[2]; Control group", "result": 26, "unit": "%"}, {"measurement": "AUC0–300 (area under the insulin concentration curve, 0 to 300 min)", "setting": "[2]; [3]", "result": "8562 (6576–11416) mU/(min·L)"}, {"measurement": "Cmax (maximum insulin concentration)", "setting": "[2]; [3]", "result": "60.4 (33.5–73.6) mU/L"}, {"measurement": "MRT (mean residence time)", "setting": "[2]; [3]", "result": "129.5 (117.1–137.5) min"}, {"measurement": "t50% (early) (time to reach 50% of Cmax before peak)", "setting": "[2]; [3]", "result": "23.3 (11.8–34.1) min"}, {"measurement": "t50% (late) (time to reach 50% of Cmax after peak)", "setting": "[2]; [3]", "result": "163.1 (157.3–181.8) min"}, {"measurement": "tmax (time to maximum insulin concentration)", "setting": "[2]; [3]", "result": "65.0 (50.0–90.0) min"}, {"measurement": "AUC0–300 (area under the insulin concentration curve, 0 to 300 min)", "setting": "[2]; [4]", "result": "8894 (7599–9870) mU/(min·L)"}, {"measurement": "Cmax (maximum insulin concentration)", "setting": "[2]; [4]", "result": "61.9 (45.0–82.5) mU/L"}, {"measurement": "MRT (mean residence time)", "setting": "[2]; [4]", "result": "118.0 (97.9–131.0) min"}, {"measurement": "t50% (early) (time to reach 50% of Cmax before peak)", "setting": "[2]; [4]", "result": "27.4 (19.8–32.7) min"}, {"measurement": "t50% (late) (time to reach 50% of Cmax after peak)", "setting": "[2]; [4]", "result": "156.5 (121.2–174.5) min"}, {"measurement": "tmax (time to maximum insulin concentration)", "setting": "[2]; [4]", "result": "67.5 (45.0–80.0) min"}, {"measurement": "AUC0–300 (area under the insulin concentration curve, 0 to 300 min)", "setting": "[2]; [5]", "result": "8281 (7176–10737) mU/(min·L)"}, {"measurement": "Cmax (maximum insulin concentration)", "setting": "[2]; [5]", "result": "69.0 (56.2–71.5) mU/L"}, {"measurement": "MRT (mean residence time)", "setting": "[2]; [5]", "result": "114.4 (105.9–116.9) min"}, {"measurement": "t50% (early) (time to reach 50% of Cmax before peak)", "setting": "[2]; [5]", "result": "18.0 (11.2–19.2) min"}, {"measurement": "t50% (late) (time to reach 50% of Cmax after peak)", "setting": "[2]; [5]", "result": "135.4 (120.4–150.0) min"}, {"measurement": "tmax (time to maximum insulin concentration)", "setting": "[2]; [5]", "result": "42.5 (35.0–45.0) min"}, {"measurement": "AUC0–300 (area under the insulin concentration curve, 0 to 300 min)", "setting": "[2]; [6]", "result": "7434 (6600–8282) mU/(min·L)"}, {"measurement": "Cmax (maximum insulin concentration)", "setting": "[2]; [6]", "result": "60.2 (56.2–69.7) mU/L"}, {"measurement": "MRT (mean residence time)", "setting": "[2]; [6]", "result": "112.4 (104.1–124.3) min"}, {"measurement": "t50% (early) (time to reach 50% of Cmax before peak)", "setting": "[2]; [6]", "result": "15.7 (12.2–25.6) min"}, {"measurement": "t50% (late) (time to reach 50% of Cmax after peak)", "setting": "[2]; [6]", "result": "119.3 (98.8–152.7) min"}, {"measurement": "tmax (time to maximum insulin concentration)", "setting": "[2]; [6]", "result": "32.5 (25.0–50.0) min"}, {"measurement": "AUC0–300 (area under the insulin concentration curve, 0 to 300 min)", "setting": "[2]; [7]", "result": "8175 (7194–8538) mU/(min·L)"}, {"measurement": "Cmax (maximum insulin concentration)", "setting": "[2]; [7]", "result": "93.6 (73.9–104.4) mU/L"}, {"measurement": "MRT (mean residence time)", "setting": "[2]; [7]", "result": "89.0 (76.9–91.7) min"}, {"measurement": "t50% (early) (time to reach 50% of Cmax before peak)", "setting": "[2]; [7]", "result": "12.4 (10.3–14.2) min"}, {"measurement": "t50% (late) (time to reach 50% of Cmax after peak)", "setting": "[2]; [7]", "result": "74.8 (66.7–76.2) min"}, {"measurement": "tmax (time to maximum insulin concentration)", "setting": "[2]; [7]", "result": "25.0 (25.0–30.0) min"}, {"measurement": "AUC0–300 (area under the insulin concentration curve, 0 to 300 min)", "setting": "[2]; [8]", "result": "7253 (5949–7625) mU/(min·L)"}, {"measurement": "Cmax (maximum insulin concentration)", "setting": "[2]; [8]", "result": "72.6 (54.1–91.0) mU/L"}, {"measurement": "MRT (mean residence time)", "setting": "[2]; [8]", "result": "88.7 (85.7–110.5) min"}, {"measurement": "t50% (early) (time to reach 50% of Cmax before peak)", "setting": "[2]; [8]", "result": "11.5 (8.2–13.1) min"}, {"measurement": "t50% (late) (time to reach 50% of Cmax after peak)", "setting": "[2]; [8]", "result": "69.3 (68.2–88.3) min"}, {"measurement": "tmax (time to maximum insulin concentration)", "setting": "[2]; [8]", "result": "25.0 (25.0–30.0) min"}, {"measurement": "AUC0–300 (area under the insulin concentration curve, 0 to 300 min)", "setting": "[2]; [9]", "result": "6684 (6402–8342) mU/(min·L)"}, {"measurement": "Cmax (maximum insulin concentration)", "setting": "[2]; [9]", "result": "92.3 (78.4–101.5) mU/L"}, {"measurement": "MRT (mean residence time)", "setting": "[2]; [9]", "result": "75.7 (66.7–87.0) min"}, {"measurement": "t50% (early) (time to reach 50% of Cmax before peak)", "setting": "[2]; [9]", "result": "11.6 (9.5–14.2) min"}, {"measurement": "t50% (late) (time to reach 50% of Cmax after peak)", "setting": "[2]; [9]", "result": "62.5 (60.7–68.8) min"}, {"measurement": "tmax (time to maximum insulin concentration)", "setting": "[2]; [9]", "result": "25.0 (25.0–25.0) min"}, {"measurement": "AUC0–300 (area under the insulin concentration curve, 0 to 300 min)", "setting": "[2]; [10]", "result": "6603 (5822–6773) mU/(min·L)"}, {"measurement": "Cmax (maximum insulin concentration)", "setting": "[2]; [10]", "result": "80.9 (79.0–84.0) mU/L"}]}]}
